One molecule from patent publication CN112661841A (GUANGZHOU 8TH PEOPLES HOSPITAL, dated 2021) can be followed below.

The target of assay [1] is T1, SARS-CoV-2 S蛋白 (SARS-CoV-2, UniProt P0DTC2 16-1213). The assay is described as follows: ELISA, antibody on S protein. On the technique in general: ELISA stands for enzyme-linked immunosorbent assay.
The target of assay [2] is T2, SARS-CoV-2 S1蛋白 (SARS-CoV-2, UniProt P0DTC2 16-685).
T2 construct: domain: S1
The assay can be described thus: ELISA.

Assay [3] has as its target T1, SARS-CoV-2 S蛋白. The assay can be described thus: cell-based or functional assay.
Assay [4] concerns the target T3, SARS-CoV-2 S2蛋白 (SARS-CoV-2, UniProt P0DTC2 686-1213).
T3 construct: domain: S2
The assay can be described thus: ELISA, antibody on S2 protein.

B1: 全人单克隆抗体17-2 (antibody, V domains shown)
VH: QLQLQESGPGLVKASETLSLTCTVSSGSVSSDSYYWSWIRQPPGKGLEWIGYIYYSGSTNYNPSLKSRVTMSVDTSKNQFSLKLDSVTAADTAAYYCARGPLGLYYYYMDVWGKGTTVTVSS
VL: DIQMTQSPSSLSASVGDRVTITCRASQSINNYLNWYQQKPGKAPKLLIYAASSLQSGVPSRFSGSGSGTDFALTISGLQPEDFATYYCQESNSSPFTFGPGTKVDIK
notes: also called 17-2抗体
B1: the EC50 – broadly, the midpoint of the concentration-response curve – was 0.034 µg/mL in assay [1] and 0.038 µg/mL in assay [4]. Also, in assay [2], the binding result is reported as “no binding”. For the same molecule, in assay [3], the “假病毒中和实验 IC50” value was found to be 0.587 µg/mL.
